Test results from US20110263454A1, “Methods of Identifying Functional Characteristics of Promoters, Transcription Modifying Proteins and Transcription Modulating Agents” (Salk Institute for Biological Studies, priority 2008, published 2011).

Assays:
[1] = tested on: mUCP2 promoter; assay: NHR-promoter luciferase screen, mUCP2 promoter; assay type: cell-based, mouse; settings: for Luc. act., normalized to lacZ / Normalized Luc. act., normalized to control: mUCP2 promoter reporter, co-transfected HR, with or without its ligand; for Normalized Luc. act., normalized to control: relative to control; for luciferase activity normalized to lacZ activity and to a control, mUCP2: mUCP2 promoter-luciferase, CV-1 cells, NHR +/- ligand, control = 1.00
Outline: (§1)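 CV-1 cells were co-transfected with 50 ng NHR (homodimer or NHR/RXR heterodimer), 100 ng promoter-luciferase construct and 50 ng LacZ. Luciferase was normalized to LacZ and to a no-NHR/no-ligand control.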

[2] = tested on: mAgrp promoter; assay: NHR-promoter luciferase screen, mAgrp promoter; assay type: cell-based, mouse; settings: for Results of assays of transcription factor (+/- ligand) with mAgrp: Table 6d, luciferase activity relative to control (control = 1.00); for Luc. act., normalized to lacZ / Normalized Luc. act., normalized to control: mAgrp promoter, HR component with or without ligand; for Normalized Luc. act., normalized to control: relative to control
Outline: as §1

[3] = tested on: hIFNg promoter; assay: NHR-promoter luciferase screen, hIFNg promoter; assay type: cell-based, human; settings: for Luc. act., normalized to lacZ / Normalized Luc. act., normalized to control: IFNg promoter, HR component without or with ligand; for hIFNg promoter reporter activity: transcription factor +/- ligand, control = 1.00
Outline: as §1

| Molecule | Luc. act., normalized to lacZ [1] | Normalized Luc. act., normalized to control [1] | luciferase activity normalized to lacZ activity and to a control, mUCP2 [1] | Results of assays of transcription factor (+/- ligand) with mAgrp [2] | Luc. act., normalized to lacZ [2] | Normalized Luc. act., normalized to control [2] | Luc. act., normalized to lacZ [3] | Normalized Luc. act., normalized to control [3] | hIFNg promoter reporter activity [3] |
| --- | --- | --- | --- | --- | --- | --- | --- | --- | --- |
| hMR: Mineralocorticoid Receptor (NR3C2, MR), cDNA driver (protein, UniProt P08235 1-984, looked up) Mineralocorticoid receptor: METKGYHSLPEGLDMERRWGQVSQAVERSSLGPTERTDENNYMEIVNVSCVSGAIPNNSTQGSSKEKQELLPCLQQDNNRPGILTSDIKTELESKELSATVAESMGLYMDSVRDADYSYEQQNQQGSMSPAKIYQNVEQLVKFYKGNGHRPSTLSCVNTPLRSFMSDSGSSVNGGVMRAVVKSPIMCHEKSPSVCSPLNMTSSVCSPAGINSVSSTTASFGSFPVHSPITQGTPLTCSPNVENRGSRSHSPAHASNVGSPLSSPLSSMKSSISSPPSHCSVKSPVSSPNNVTLRSSVSSPANINNSRCSVSSPSNTNNRSTLSSPAASTVGSICSPVNNAFSYTASGTSAGSSTLRDVVPSPDTQEKGAQEVPFPKTEEVESAISNGVTGQLNIVQYIKPEPDGAFSSSCLGGNSKINSDSSFSVPIKQESTKHSCSGTSFKGNPTVNPFPFMDGSYFSFMDDKDYYSLSGILGPPVPGFDGNCEGSGFPVGIKQEPDDGSYYPEASIPSSAIVGVNSGGQSFHYRIGAQGTISLSRSARDQSFQHLSSFPPVNTLVESWKSHGDLSSRRSDGYPVLEYIPENVSSSTLRSVSTGSSRPSKICLVCGDEASGCHYGVVTCGSCKVFFKRAVEGQHNYLCAGRNDCIIDKIRRKNCPACRLQKCLQAGMNLGARKSKKLGKLKGIHEEQPQQQQPPPPPPPPQSPEEGTTYIAPAKEPSVNTALVPQLSTISRALTPSPVMVLENIEPEIVYAGYDSSKPDTAENLLSTLNRLAGKQMIQVVKWAKVLPGFKNLPLEDQITLIQYSWMCLSSFALSWRSYKHTNSQFLYFAPDLVFNEEKMHQSAMYELCQGMHQISLQFVRLQLTFEEYTIMKVLLLLSTIPKDGLKSQAAFEEMRTNYIKELRKMVTKCPNNSGQSWQRFYQLTKLLDSMHDLVSDLLEFCFYTFRESHALKVEFPAMLVEIISDQLPKVESGNAKPLYFHRK | 58.8 | 0.5 | 0.54 | 0.79 | 31.2 | 0.8 | 10.4 | 0.7 | 0.65 |
| CTF1: COUP-TF1 (NR2F1), cDNA driver (protein, UniProt P10589 1-423, looked up) COUP transcription factor 1: MAMVVSSWRDPQDDVAGGNPGGPNPAAQAARGGGGGAGEQQQQAGSGAPHTPQTPGQPGAPATPGTAGDKGQGPPGSGQSQQHIECVVCGDKSSGKHYGQFTCEGCKSFFKRSVRRNLTYTCRANRNCPIDQHHRNQCQYCRLKKCLKVGMRREAVQRGRMPPTQPNPGQYALTNGDPLNGHCYLSGYISLLLRAEPYPTSRYGSQCMQPNNIMGIENICELAARLLFSAVEWARNIPFFPDLQITDQVSLLRLTWSELFVLNAAQCSMPLHVAPLLAAAGLHASPMSADRVVAFMDHIRIFQEQVEKLKALHVDSAEYSCLKAIVLFTSDACGLSDAAHIESLQEKSQCALEEYVRSQYPNQPSRFGKLLLRLPSLRTVSSSVIEQLFFVRLVGKTPIETLIRDMLLSGSSFNWPYMSIQCS | 67.1 | 0.6 | 0.61 | 0.71 | 28.2 | 0.7 | 31.8 | 2.0 | 2.00 |
| ERR3: Estrogen Related Receptor γ (NR3B3, ERRg), cDNA driver (protein, UniProt P62508 1-458, looked up) Estrogen-related receptor …: MDSVELCLPESFSLHYEEELLCRMSNKDRHIDSSCSSFIKTEPSSPASLTDSVNHHSPGGSSDASGSYSSTMNGHQNGLDSPPLYPSAPILGGSGPVRKLYDDCSSTIVEDPQTKCEYMLNSMPKRLCLVCGDIASGYHYGVASCEACKAFFKRTIQGNIEYSCPATNECEITKRRRKSCQACRFMKCLKVGMLKEGVRLDRVRGGRQKYKRRIDAENSPYLNPQLVQPAKKPYNKIVSHLLVAEPEKIYAMPDPTVPDSDIKALTTLCDLADRELVVIIGWAKHIPGFSTLSLADQMSLLQSAWMEILILGVVYRSLSFEDELVYADDYIMDEDQSKLAGLLDLNNAILQLVKKYKSMKLEKEEFVTLKAIALANSDSMHIEDVEAVQKLQDVLHEALQDYEAGQHMEDPRRAGKMLMTLPLLRQTSTKAVQHFYNIKLEGKVPMHKLFLEMLEAKV | 193.4 | 1.8 | 1.76 | 2.12 | 84.0 | 2.1 | 27.9 | 1.8 | 1.75 |
| CTF3: COUP-TF3 (NR2F6), cDNA driver (protein, UniProt P10588 1-404, looked up) Nuclear receptor subfamily 2 …: MAMVTGGWGGPGGDTNGVDKAGGYPRAAEDDSASPPGAASDAEPGDEERPGLQVDCVVCGDKSSGKHYGVFTCEGCKSFFKRSIRRNLSYTCRSNRDCQIDQHHRNQCQYCRLKKCFRVGMRKEAVQRGRIPHSLPGAVAASSGSPPGSALAAVASGGDLFPGQPVSELIAQLLRAEPYPAAAGRFGAGGGAAGAVLGIDNVCELAARLLFSTVEWARHAPFFPELPVADQVALLRLSWSELFVLNAAQAALPLHTAPLLAAAGLHAAPMAAERAVAFMDQVRAFQEQVDKLGRLQVDSAEYGCLKAIALFTPDACGLSDPAHVESLQEKAQVALTEYVRAQYPSQPQRFGRLLLRLPALRAVPASLISQLFFMRLVGKTPIETLIRDMLLSGSTFNWPYGSGQ | 54.4 | 0.5 | 0.49 | 0.86 | 34.2 | 0.9 | 28.5 | 1.8 | 1.79 |
| CTF2: COUP-TF2 (NR2F2), cDNA driver (protein, UniProt P24468 1-414, looked up) COUP transcription factor 2: MAMVVSTWRDPQDEVPGSQGSQASQAPPVPGPPPGAPHTPQTPGQGGPASTPAQTAAGGQGGPGGPGSDKQQQQQHIECVVCGDKSSGKHYGQFTCEGCKSFFKRSVRRNLSYTCRANRNCPIDQHHRNQCQYCRLKKCLKVGMRREAVQRGRMPPTQPTHGQFALTNGDPLNCHSYLSGYISLLLRAEPYPTSRFGSQCMQPNNIMGIENICELAARMLFSAVEWARNIPFFPDLQITDQVALLRLTWSELFVLNAAQCSMPLHVAPLLAAAGLHASPMSADRVVAFMDHIRIFQEQVEKLKALHVDSAEYSCLKAIVLFTSDACGLSDVAHVESLQEKSQCALEEYVRSQYPNQPTRFGKLLLRLPSLRTVSSSVIEQLFFVRLVGKTPIETLIRDMLLSGSSFNWPYMAIQ | 90.4 | 0.8 | 0.82 | 1.08 | 42.7 | 1.1 | 35.0 | 2.2 | 2.20 |
